Assay results as given in patent US20230049752A1 (University of California, published 2023).

Columns and labels:
[1] = target: human Claudin-6 (CLDN6) (human) (UniProt P56747); assay: flow cytometry, HEK293T CLDN6-mGFP A11 cells (positive artificial OE cell line); 2nd Ab only 1,242.89
[2] = target: human Claudin-6 (CLDN6) (human) (UniProt P56747); assay: KinExA, HEK293T CLDN6-mGFP A11 cells detached by Versene, equilibrium curves 500pM, 10nM; printed 95% CI 0.53nM - 2.03nM
[3] = target: human Claudin-6 (CLDN6) (human) (UniProt P56747); assay: FACS, 1.5 ug Ab, 293T clone expressing human CLDN6 (2nd Ab only 768.07)
[4] = target: human Claudin-6 (CLDN6) (human) (UniProt P56747); assay: FACS, 1.5 ug Ab, ARK2 cells (2nd Ab only 1351.21)
[5] = target: human Claudin-6 (CLDN6) (human) (UniProt P56747); assay: FACS, 0.3 ug Ab, 293T clone expressing human CLDN6 (2nd Ab only 768.07)
[6] = target: human Claudin-6 (CLDN6) (human) (UniProt P56747); assay: FACS, limiting dilution, ARK2 cells
[7] = target: human Claudin-6 (CLDN6) (human) (UniProt P56747); assay: FACS, limiting dilution, UMUC4 cells
mouse Claudin-6 (CLDN6) = target: T1, mouse Claudin-6 (CLDN6) (mouse, UniProt Q9Z262 1-219); assay: FACS, 293T clone expressing mouse CLDN6, dose not stated (2nd Ab only 1061.72)
T1 construct: whole, on cells; GFP fusion on engineered HEK293T cells; also called Mouse CLDN6; murine CLDN6
T1 sequence (looked up): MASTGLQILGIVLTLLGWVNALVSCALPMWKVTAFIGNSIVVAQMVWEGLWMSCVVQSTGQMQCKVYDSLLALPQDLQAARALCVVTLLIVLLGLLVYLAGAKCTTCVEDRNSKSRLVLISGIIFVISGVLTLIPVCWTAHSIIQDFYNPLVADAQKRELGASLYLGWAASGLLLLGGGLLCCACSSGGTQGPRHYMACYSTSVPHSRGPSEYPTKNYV
Description: Two doses (1.5 μg or 0.3 μg) of the humanized antibodies were tested for binding to either human CLDN6 or murine CLDN6 which proteins were expressed by engineered 293T clones.

[8] = target: human Claudin-6 (CLDN6) (human) (UniProt P56747); assay: FACS, 0.3 ug Ab, ARK2 cells (2nd Ab only 1351.21)
[9] = target: human Claudin-6 (CLDN6) (human) (UniProt P56747); assay: FACS, limiting dilution, OV90 cells
[10] = target: human Claudin-6 (CLDN6) (human) (UniProt P56747); assay: flow cytometry, UMUC4 cells (positive cell line); 2nd Ab only 1,114.73
[11] = target: human Claudin-6 (CLDN6) (human) (UniProt P56747); assay: KinExA, HEK293T CLDN6-mGFP A11 cells detached by Versene, equilibrium curves 500pM, 10nM; printed 95% CI 1.46nM - 6.47nM
[12] = target: human Claudin-6 (CLDN6) (human) (UniProt P56747); assay: KinExA, HEK293T CLDN6-mGFP A11 cells detached by Versene, equilibrium curves 500pM, 10nM; printed 95% CI 2.10nM - 5.42nM

B1: AB3-7 (antibody, V domains shown)
VH: EVQLLESGGGLVQPGGSMRLSCAASGFTFSNYWMNWVRQAPGKGLEWVAQIRLKSDNYATHYADSVKGRFTISRDDSKNTVYLQMNSLRAEDTGVYYCNDGPPSGSWGQGTLLTVSS
VL: DIQMTQSPSSLSASVGDRVTITCRISENIYSYLAWYQQKPGKAPKLLVYNAKILVEGVPSRFSGSGSGTDFTLTISSLQPEDFGTYYCQHHYTVPWTFGQGTKLEIK
notes: humanized; also called AB23; humanized AB3-7
B1 showed a flow cytometry signal at 0.1µg Ab/Sample [1] of 107000, a Kd [2] of 1.13 nM and an FACS fluorescence [3] of 169000. The FACS fluorescence [4] was 90400, the FACS fluorescence [5] was 106000 and the FACS signal at 0.32 nM [6] was 402. For the same binder, the FACS signal at 1.6 nM [6] was 537, the FACS signal at 8 nM [6] was 991 and the FACS signal at 40 nM [6] was 1640. It also gave an FACS signal at 200 nM [6] of 3060, an FACS signal at 1000 nM [6] of 11400 and an FACS signal at 0.32 nM [7] of 604. The FACS signal at 1.6 nM [7] was 570, the FACS signal at 8 nM [7] was 724 and the FACS signal at 40 nM [7] was 1120. It also gave an FACS signal at 200 nM [7] of 2110, an FACS signal at 1000 nM [7] of 9840 and an FACS fluorescence (mouse Claudin-6 (CLDN6)) of 56100. It also gave an FACS fluorescence [8] of 36000, an FACS signal at 0.32 nM [9] of 393 and an FACS signal at 1.6 nM [9] of 567. For the same binder, the FACS signal at 8 nM [9] was 565, the FACS signal at 40 nM [9] was 1140 and the FACS signal at 200 nM [9] was 2330. It also gave an FACS signal at 1000 nM [9] of 9390, a flow cytometry signal at 0.1µg Ab/Sample [10] of 8820 and a flow cytometry signal at 1µg Ab/Sample [10] of 27300.

B2: CLDN6 ADC: AB3-7 conjugated to MC-GGFG-DXD (antibody, V domains shown)
VH: B1 VH
VL: B1 VL
modifications: antibody conjugated to MC-GGFG-DXD; attachment residues not stated
B2 was tested, and the flow cytometry signal at 0.1µg Ab/Sample [1] was 121000, the Kd [11] was 3.01 nM and the flow cytometry signal at 0.1µg Ab/Sample [10] was 10500. It also gave a flow cytometry signal at 1µg Ab/Sample [10] of 32800.

B3: CLDN6 ADC: AB3-7 conjugated to MC-VC-PAB-DXD (antibody, V domains shown)
VH: B1 VH
VL: B1 VL
modifications: antibody conjugated to MC-VC-PAB-DXD; attachment residues not stated
B3 gave a flow cytometry signal at 0.1µg Ab/Sample [1] of 110000, a Kd [12] of 3.42 nM and a flow cytometry signal at 0.1µg Ab/Sample [10] of 10800. For the same binder, the flow cytometry signal at 1µg Ab/Sample [10] was 32600.
